Our source for the protein stability index values is the supplement of paper PMC10724198.

± gives the standard deviation of the averaged measurements.

For the series, the system named is Saccharomyces cerevisiae. The experiment in a line: protein stability index of tFT-peptide fusion (C-terminal peptide) (PSI (0-1 scale)); higher = more stable (slower turnover). The note with it: temperature: 30 C. On the procedure: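 MPS profiling in S. cerevisiae of the yeast C-terminome library: the last 12 aa of each annotated ORF are fused to the C-terminus of a sfGFP-mCherry timer, after a GGGS linker. Cells are FACS-sorted into 8 mCherry/sfGFP bins and deep-sequenced. PSI runs from 0 (unstable) to 1 (stable); wild type and das1Δ backgrounds, two technical replicates each.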

Where [1] appears, read: genetic background: das1 deletion.

As for QTSAKVSIRLLY [SER33 C-terminal 12 aa], the protein stability index is 0.659 ± 0.034 under setting [1] and 0.595 ± 0.0064 (genetic background: wild type).
As for RAGRSTLKETPQ [CCT6 C-terminal 12 aa], the protein stability index came to 0.673 ± 0.018 under setting [1] and 0.692 ± 0.071 (genetic background: wild type).
For RAMNEDETLRNL [ORC1 C-terminal 12 aa], the protein stability index runs as follows: under setting [1], 0.6957 ± 0.0042; (genetic background: wild type) 0.746 ± 0.012.
Consider RCGALSEKLVFL [FMT1 C-terminal 12 aa], for which the protein stability index is 0.694 ± 0.011 under setting [1] and 0.697 ± 0.013 (genetic background: wild type).
Regarding RDLPSVLAKYGF [RRG1 C-terminal 12 aa], the protein stability index reads like this: under setting [1], 0.7236 ± 0.0048; (genetic background: wild type) 0.703 ± 0.04.
On the same counts, the results for RDNPILLEDEDP [ULP2 C-terminal 12 aa] are 0.708 ± 0.022 and 0.6747 ± 0.00092.
The sequence REDDDEPASLDF [PRI1 C-terminal 12 aa] registered a protein stability index under setting [1] of 0.697 ± 0.0043 and a protein stability index (genetic background: wild type) of 0.6533 ± 0.0064.
On the same counts, the results for REVLEQEGRRIE [NBL1 C-terminal 12 aa] are 0.69 ± 0.0073 and 0.693 ± 0.054.
On the same counts, the results for RILKDEIPIGED [BET3 C-terminal 12 aa] are 0.702 ± 0.017 and 0.659 ± 0.0079.
For RIYDFFQSQNWM [ADA2 C-terminal 12 aa], the protein stability index reads like this: under setting [1], 0.7311 ± 0.0031; (genetic background: wild type) 0.7058 ± 0.0047.
For RKAAERDNMLTT [CTL1 C-terminal 12 aa] the same measures were 0.704 ± 0.015 and 0.706 ± 0.0072.
For RKDEHIVQNIIN [YGR164W C-terminal 12 aa] the same measures were 0.6993 ± 0.0033 and 0.681 ± 0.029.
For the sequence RKFQPPPGFKRK [SMB1 C-terminal 12 aa], the protein stability index came out at 0.724 ± 0.017 under setting [1] and 0.74 ± 0.047 (genetic background: wild type).
In turn, RLKTGKKKGGPK [RRP14 C-terminal 12 aa] displayed a protein stability index under setting [1] of 0.6909 ± 0.0054 and a protein stability index (genetic background: wild type) of 0.766 ± 0.13.
RLPRSFLFLNKK [YOR343C C-terminal 12 aa]: the protein stability index stood at 0.723 ± 0.01 under setting [1] and 0.665 ± 0.028 (genetic background: wild type).
On the same counts, the results for RLVVEPLQGRKH [ISD11 C-terminal 12 aa] are 0.729 ± 0.011 and 0.72 ± 0.036.
RLYVSRLFISKL [ATP8 C-terminal 12 aa]: the protein stability index under setting [1] worked out at 0.801 ± 0.042 and the protein stability index (genetic background: wild type) was 0.671 ± 0.14.
With RMDEENYEEEFC [UBP11 C-terminal 12 aa], the protein stability index under setting [1] is 0.716 ± 0.02 and the protein stability index (genetic background: wild type) is 0.707 ± 0.034.
On the same counts, the results for RNQNSDRLNFQP [YBR138C C-terminal 12 aa] are 0.705 ± 0.0061 and 0.675 ± 0.016.
As for RPFYKRMFTKEK [HXT5 C-terminal 12 aa], the protein stability index by setting is: under setting [1], 0.7313 ± 0.0058; (genetic background: wild type) 0.732 ± 0.033.
For RPMPPIRGPKRR [SMD3 C-terminal 12 aa], the protein stability index runs as follows: under setting [1], 0.688 ± 0.017; (genetic background: wild type) 0.724 ± 0.048.
With “RPMQHMYINNFT [YAL026C-A C-terminal 12 aa]”, the protein stability index came to 0.71914 ± 0.00059 under setting [1] and 0.672 ± 0.011 (genetic background: wild type).
As to RQLGSKQRKHRL [ECI1 C-terminal 12 aa], the protein stability index is, setting by setting: under setting [1], 0.786 ± 0.021; (genetic background: wild type) 0.82 ± 0.026.
On to RQSRERALGIKR [PRP22 C-terminal 12 aa], for which the protein stability index turned out to be 0.6929 ± 0.0054 under setting [1] and 0.701 ± 0.036 (genetic background: wild type).
On the same counts, the results for RRCDDMLYYIQN [POP4 C-terminal 12 aa] are 0.716 ± 0.021 and 0.662 ± 0.011.
On the same counts, the results for RRQMGIPTISQV [FHN1 C-terminal 12 aa] are 0.681 ± 0.016 and 0.6838 ± 0.0048.
Turning to RSDTKEPLALLS [VPS20 C-terminal 12 aa], the protein stability index turned out to be 0.6784 ± 0.0067 under setting [1] and 0.646 ± 0.01 (genetic background: wild type).
With RSHSRKNSLSLL [SPO24 C-terminal 12 aa], the protein stability index by setting is: under setting [1], 0.72 ± 0.021; (genetic background: wild type) 0.734 ± 0.028.
